Results from patent publication US20240245805A1 (Orna Therapeutics, Inc., priority 2020, published 2024).

B1: Human coxsackievirus A2 (nucleic acid)
DNA: ACCTTTGTGCGCCTGTTTTATATCCCCACCCCGAGTAAACGTTAGAAGTTACGCAACCCCGATCAATAGTAGGTGTAGCACTCCAGCTGCATCGAGATCAAGCACTTCTGTCTCCCCGGACCGAGTATCAATAGACTGCTAACGCGGTTGAAGGAGAAAACGTTCGTTACCCGGCCAATTACTTCGAGAAGCCCAGTAGTGCCGTGAAAGTTGCGGAGTGTTTCGCTCAGCACTTCCCCCGTGTAGATCAGGCTGATGAGTCACCGCGATCCCCACAGGTGACTGTGGCGGTGGCTGCGTTGGCGGCCTGCCTATGGGGCAACCCATAGGACGCTCTAATACAGACATGGTGCGAAGAGCCTATTGAGCTAATTGGTAGTCCTCCGGCCCCTGAATGCGGCTAATCCTAACTGCGGAGCACATGCCCTCAAACCAGGGGGTGGTGTGTCGTAACGGGTAACTCTGCAGCGGAACCGACTACTTTGGGTGTCCGTGTTTCTTTTTATTCTTATAATGGCTGCTTATGGTGACAATTAAAGAATTGTTACCATATAGCTATTGGATTGGCCATCCGGTGACTAACAAATCGCTCATATACCAGTTTGTTGGTTTTGTTCCCTTATCACATACAGCTCATAACACCCTCTTATATTTACTACAATTGAATAGCAAGAA
modifications: source: /note="Description of Unknown: Human coxsackievirus A2 sequence"
B2: Equine rhinitis B virus 1 (nucleic acid)
chain: CGACAGGCACAGGTCGCTCCGAGTTCTAGTAGTGTGGGAACTTGTTACTACTGATGAAACGAGGTAGTGACACTCAGTACCTGCGAACGAGGTCGGGGCCCTCCCTTCTTCCTTCACCCAACTTTCACTTTTCGTTCCACTTTAGCAGGGGTCTTCTTTCTATCCCCCTGGCGGCATTGGAACTAGCCGTCGCGTCTTAACGCGCAGCCCTGAAGGCCCCACACCTTGTGGATCTTGCCGTGGGTATGTTTCTGGCATGTGTTTCTCAAGCCTGCAACCGAAGCCGAACAGCCACATGAACAGTTTGAGCGTGGTAGCGCTGTGTGAGTTGGCGGTGGATCCCCCTCGTGGTAACACGAGCCCCCGTGGCCAAAAGCCCAGTGTTTACAGCACCTCTCACATCCAGGACGACCCCATCCTGGCGCTCACTCTTAGTAGTATGGCTTAGTACGCATTAGGTGGTAAGCCGAGCTCTCCCTCGGCCTTGTTCTGAATGCACACATGTCTAGGGGCTAAGGATGTCCTACAGGTACCCGCACGTAACCTTCAGAGAGTGCGGATCTGAGTAGGAGACCGTGGTGCACTGCTTTACAGATGCAGCCCGGTTTAAAAAGCGTCTATGCCCCTACAGGGTAGCGGTGGGCCGCGCCCTTTCCTTTTAAAACTACTTGTTCT
modifications: lipid formulation; source: /note="Description of Unknown: Equine rhinitis B virus 1 sequence"
B3: Equine rhinitis A virus (nucleic acid)
chain: AAGGGTTACTGCTCGTAATGAGAGCACATGACATTTTGCCAAGATTTCCTGGCAATTGTCACGGGAGAGAGGAGCCCGTTCTCGGGCACTTTTCTCTCAAACAATGTTGGCGCGCCTCGGCGCGCCCCCCCTTTTTCAGCCCCCTGTCATTGACTGGTCGAAGGCGCTCGCAATAAGACTGGTCGTTGCTTGGCTTTTCTATTGTTTCAGGCTTTAGCGCGCCCTTGCGCGGCGGGCCGTCAAGCCCGTGTGCTGTACAGCACCAGGTAACCGGACAGCGGCTTGCTGGATTTTCCCGGTGCCATTGCTCTGGATGGTGTCACCAAGCTGGCAGATGCGGAGTGAACCTTACGAAGCGACACACCTGTGGTAGCGCTGCCCAGAAGGGAGCGGAGCTCCCCCGCCGCGAGGCGGTCCTCTCTGGCCAAAAGCCCAGCGTTAATAGCGCCTTCTGGGATGCAGGAACCCCACCTGCCAGGTGTGAAGTGGACTAAGTGGATCTCCAATTTGGCCTGTTCTGAACTACACCATCTACTGCTGTGAAGAATGTCCTGAAGGCAAGCTGGTTACAGCCCTGATCAGGAGCCCCGCTCGTGACTCTCGATCGACGCGGGGTCAAAAACTGTCTAAGCAGCAGCAGAAACGCGGGAGCGTTTCTTTTTCCTCATTTGTTTC
modifications: lipid formulation; Equine rhinitis A virus
B4: Guereza hepacivirus (nucleic acid, listed as Hepacivirus sp.)
chain: CACTCAATACTACACTCCGCATTTGGGGAGAAGCGCTGGCGTTCGCGGAACCGCGTTAACCATACGCGTAGTACGAGTGCGACAGACCCCGGTGCTACTGGTGGTAGCGAGACACGAGCCGAAGTCTGTGGGGGGAACTCCACTTAGAGGGCATGCCCGGGCGTAGGCTTCTGAGTTGGGATGGGCCCCAACTTGGCCCCTGAGTGGGGGGGTGTTACGACCTGATAGGGTGCGGGCTGGCGCCTACCACTTTCCAGTCGTACATGAGTC
modifications: lipid formulation
B5: Falcon picornavirus (nucleic acid)
chain: CGCTTGGAATAAGTTGAGAGGAATTATGCATGCTAGTTGTGTTTGTTTACAACTAATTGTTCTAATCCAAGTGAAGCTCTTCGCTTGGGGCGGCACGACACTTGCCGTAATTCTTCTACCGTCCCTCCACACCTTGTGGATGAAGGGCCGGATGTGTGGCCTCTGGCTAACCCCTCTCTCTGGGGTGATGCTACTGGATGTTTTACTCCTAGACCAAATCACATGAACTCCTCTTGATCCACTTCGGTGGGGCTATGAGCCTGCGGATTAATAGCTGGCGACAGCTACCCCAGGGGCCAAAAGCCACGGTGTTAGCAGCACCCTCATAGTCTGATGCCCAAGGGCTGATGTTGGGAGCTAGTAGTGTGTGTCTGGCCTATGTTTAGGACTTCTGGCCAAGCGCAGAGGAGTGGGGCTGAAGGATGCCCAGAAGGTACCCGTAGGTAACCTTAAGAGACTATGGATCTGATCTGGGGCCCCCTCACGTGGCTTTACCACGTGTTGGGGGTTAAAAAACGTCTAGGCCCCACCAGCCCACGGGAGTGGGCTTTCCCTTAAAAAGCCCAACAATATTTATGGTGACAATTCACTGTTTCTTCTTTGCAATTTTTGTATTCTTGGACTCCTTATTTTTTGTTTGCTTGATTTTAGTGGACATTCAGATTCAAATACAAA
modifications: lipid formulation; source: /note="Description of Unknown: Falcon picornavirus sequence"
B6: Enterovirus sp. isolate CPML (nucleic acid, listed as Enterovirus sp.)
chain: ACTCTGGTATCACGGTACCTTTGCACGCCTATTTTATACCCCTTCCCCATCGTAACTTAGAAGCAACAAACAAACTGCCCAATAGCAGCACAACACCCAGTTGTGTTAGGGGCAAGCACTTCTGTTTCCCCGGAAGGGTCTGACGGTATGCTGTACCCACGGCAGAAGTATGACCTACCGTTAACCGGCCATGTACTTCGAGAAGCCTAGTACCATTATGAAGGTTGATTGATGTTACGCTCCCCAGCAACCCCAGCTGGTAGTTCTGGTCGATGAGTCTCGGCATTCCCCACGGGCGACCGTGGCCGAGGCTGCGTTGGCGGCCAGCCTACACCATACGGTGTAGGACGTCAAGATACTGACATGGTGTGAAGAGCCTATTGAGCTACGTGGTAGTCCTCCGGCCCCTGAATGCGGCTAATCCTAACTCCGGAGCATCCGCCAGTAAGCCCACTGGAAGGGTGTCGTAATGCGAAAGTCTGGAGCGGAACCGACTACTTTGGGTGTCCGTGTTTCCTGTTTTACTTATTGTTTGGCTGCTTATGGTGACAACTTATAGTTATCATCATAAGCTACTTGGTCTTGCCAACCGGAGAATTATTTGGTTATTTGTTGGTTTCATAAACCTACAGTCGTATTTTCCTGTCTTATTAATTGTTCTCAAAATTAACAACA
modifications: lipid formulation
B7: Enterovirus AN12 (nucleic acid, listed as Enterovirus sp.)
chain: TACCGCTGCACCAGTGAGCTGGTACGCTAGTACCTTCGCACGGAGTAGATGGCATCCCCCACCCCGTAACTTAGAAGCAAAGTACACATCTGGCCAATAGTGGCGCTGCATCCAGCCGCGCAACGGTCAAGCACTTCTGTTTCCCCGGTCCGCAAGGGTCGTTATCCGCCCAGTCCACTACGGAAAGCCTACTAACCATTGAAGCTATCGAGAGGTTGCGCTCGGCCACGACCCCGGTGGTAGCTCTGAGTGATGGGGCTCGCAAACACCCCCGTGGTAACACGGATGCTTGCCCGCGCGTGCACTCGGGTTCAGCCTATTGGTTGTTCACCTCAACATAGTGTAAATGGCCAAGAGCCTACTGTGCTGGATTGGTTTTCCTCCGGAGCCGTGAATGCTGCTAATCCCAACCTCCGAGCGTGTGCGCACAATCCAGTGTTGCTACGTCGTAACGCGTAAGTTGGAGGCGGAACAGACTACTTTCGGTACTCCGTGTTTCTTTTGTTTTATTTTGAATTTTATGGTGACAATTGCTGAGATTTGCGAATTAGCGACTCTACCGCTGAACATTGCCCTGTACTACCTAATCGCATTTCACAAAACCTCAGAGATACCAAGCTCTTACATTGATCTGCTTGTTTTCCTGAATCTCAAATATAAATTGGAACAAGCAAA
modifications: lipid formulation
B8: Poecivirus BCCH-449 (nucleic acid, listed as Poecivirus sp.)
DNA: ACTACACAATCGCAACACGCGCAAGTTTGTAGTTTGATTGGCGTGCAAATGTCAAATCAAGCATATAACACAATTTGGTGGCTGTTGGTGTTTGTTATAGGAATTTTGGTTGTGTTGAAATTGTGGATGTGTAGGAAATATGCACAATTACGTCAGCGTCAGGAGTTTTATAACCTGGCGCAACACCAAAATGGTCTTCGCGCTTTAACATCACCAGCGAGGTGTAAACAAATTGAAGTTGAATTAGATCGTGTATAGGCCAGGGAACCATCCCTCCCAACGCCACATCTTGTGGGGAAGTTGGGATAATGGTGGGTCTATATGAATTGGTCTGTAGACCCACAGTGAAGAGTGAATAGTATGCTTGCGGTTCCATTTGTTAATGGTCTAGCATGGGTGGGGGCGGCAACCCCGTGAGGGGTTCCCCACTGGCCAAAAGCCCAGGGGTTAGTCATTTCAACCAAGGAAGCTGGTAACCTGGTGACCTGAACTTGAGTGGTGAGACCCCCTTGCTAGAGTGTGTAAACCGATTGTAAGCATTTTGTTTGCTTAGTATCTGTGGTATAAGCAGTCAATTTTGTATAGGCTCAAGGCTGTGGTAGTTAGTAGATGCCCGGAAGGTTATTACTGATCCGGGGACCGTGACTATACATTAGGTAAACCGGTTTAAAAACC
modifications: lipid formulation
B9: Equine arteritis virus (nucleic acid)
chain: GCTCGAAGTGTGTATGGTGCCATATACGGCTCACCACCATATACACTGCAAGAATTACTATTCTTGTGGGCCCCTCTCGGTAAATCCTAGAGGGCTTTCCTCTCGTTATTGCGAGATTCGTCGTTAGATAACGGCAAGTTCCCTTTCTTACTATCCTATTTTCATCTTGTGGCTTGACGGGTCACTGCCATCGTCGTCGATCTCTATCAACTACCCTTGCGACT
modifications: lipid formulation; source: /note="Description of Unknown: Equine arteritis virus sequence"

System: HEK293 cells
Format: cell-based, human
Conditions: circular RNA encoding Gluc with the listed IRES (UTR truncated to 675 nt) transfected into HEK293 cells; supernatant after 24 hours

| Molecule | Expression (luminescence from secreted Gluc protein) |
| --- | --- |
| B1 | 7.75E+07 |
| B2 | 1.01E+05 |
| B3 | 3.73E+05 |
| B4 | 1.38E+05 |
| B5 | 3.08E+06 |
| B6 | 6.83E+07 |
| B7 | 3.87E+06 |
| B8 | 3.43E+05 |
| B9 | 1.89E+05 |
